Reference: publication PMC12360457 (Nature, 2025)

Target: the molecule itself
Assay: cryo-EM structure

B1: Hailong protein A (HalA) from Rhodobacteraceae bacterium QY30, purified as the detergent-solubilized HalA–ODA complex (natural protein)
chain: DTNAVKEPEPALPSAASRGRRTKNWWEPMFDANAPASFSVSDWNFSNNRGPRCTLFLAEKMPDATTLVVKDIDFQDCDFQGTFERKIVFKDCKFTRCDFGLSTFSRTKFSGCSFYASSFTQCTLENCEFRNCKYEKIFYSGNETQIPRTLIAEPYQFLFGACATVDSVPQGKSRFEQRARFEETRSTIARALLANLHSEGSEDTYYAAVKASTLSENRARIARALIKINSSASKGKSIISRAVSFLTGFASAISAVVGMLILLVMGSLNGWGSSISRAMLVGVVAISCVAYRYHYRFNLPPEDAMVKATEIFFLFGYTNYAKMGQEDFHLVFSNALLGLFWYAIAIPTISNRLTRARG
B1: binds.
